Test results taken from patent publication US20230021388A1 (VELOSBIO, published 2023).
Substitutions are numbered along the chain they refer to. Numbers in names are those of the source.

B1: Ab1 Fab variant H1 T32E (Fab, V domains shown)
VH: QVQLQESGPGLVKPSQTLSLTCTVSGYAFEAYNIHWVRQAPGQGLEWMGSFDPYDGGSSYNQKFKDRLTISKDTSKNQVVLTMTNMDPVDTATYYCARGWYYFDYWGHGTLVTVSS
VL: DIVMTQTPLSLPVTPGEPASISCRASKSISKYLAWYQQKPGQAPRLLIYSGSTLQSGIPPRFSGSGYGTDFTLTINNIESEDAAYYFCQQHDESPYTFGEGTKVEIK
notes: Fab
B2: Ab1 Fab variant H1 T32A + L2 T69R (Fab, V domains shown)
VH: B1 VH with E30A
VL: B1 VL with T53R
notes: Fab
B3: Ab1 Fab variant H1 T32A + L2 T69R, Q71T (Fab, V domains shown)
VH: B1 VH with E30A
VL: B1 VL with T53R, Q55T
notes: Fab
B4: Ab1 Fab variant H1 T32A + L1 K29S (Fab, V domains shown)
VH: B1 VH with E30A
VL: B1 VL with K27S
notes: Fab
B5: Ab1 Fab variant H1 T32A + L1 K29S + L2 T69R (Fab, V domains shown)
VH: B1 VH with E30A
VL: B1 VL with K27S, T53R
notes: Fab
B6: Ab1 Fab variant H1 T32A + L1 K29E (Fab, V domains shown)
VH: B1 VH with E30A
VL: B1 VL with K27E
notes: Fab
B7: Ab1 Fab variant H1 T32A + L1 A25P, K29S + L2 T69R (Fab, V domains shown)
VH: B1 VH with E30A
VL: B1 VL with A25P, K27S, T53R
notes: Fab
B8: Ab1 Fab variant H1 T32A + L1 K29E + L2 T69R (Fab, V domains shown)
VH: B1 VH with E30A
VL: B1 VL with K27E, T53R
notes: Fab
B9: Ab1 Fab variant H1 T32A + L2 T69H, L70K, Q71T (Fab, V domains shown)
VH: B1 VH with E30A
VL: B1 VL with T53H, L54K, Q55T
notes: Fab
B10: Ab1 Fab variant H1 T32A + L2 L70K (Fab, V domains shown)
VH: B1 VH with E30A
VL: B1 VL with L54K
notes: Fab
B11: Ab1 Fab variant H1 T32A + L2 T69H, L70K (Fab, V domains shown)
VH: B1 VH with E30A
VL: B1 VL with T53H, L54K
notes: Fab
B12: Ab1 Fab variant H1 T32A + L2 L70K, Q71T (Fab, V domains shown)
VH: B1 VH with E30A
VL: B1 VL with L54K, Q55T
notes: Fab
B13: Ab1 Fab variant H1 T32A + L2 T69H (Fab, V domains shown)
VH: B1 VH with E30A
VL: B1 VL with T53H
notes: Fab
B14: Ab1 Fab variant H1 T32A + H2 F58I (Fab, V domains shown)
VH: B1 VH with E30A, F51I
VL: B1 VL
notes: Fab
B15: Ab1 Fab variant H1 T32A + H2 G66E (Fab, V domains shown)
VH: B1 VH with E30A, G56E
VL: B1 VL
notes: Fab
B16: Ab1 Fab variant H1 T32A + H2 F58V, G66E (Fab, V domains shown)
VH: B1 VH with E30A, F51V, G56E
VL: B1 VL
notes: Fab
B17: Ab1 Fab variant H1 T32A + H2 F58I, N71H (Fab, V domains shown)
VH: B1 VH with E30A, F51I, N61H
VL: B1 VL
notes: Fab
B18: Ab1 Fab variant H1 T32A + H2 G66E, S69V, N71H (Fab, V domains shown)
VH: B1 VH with E30A, G56E, S59V, N61H
VL: B1 VL
notes: Fab
B19: Ab1 Fab variant H1 T32A + H2 F58V, N71H (Fab, V domains shown)
VH: B1 VH with E30A, F51V, N61H
VL: B1 VL
notes: Fab
B20: Ab1 Fab variant H1 T32A + H2 N71H (Fab, V domains shown)
VH: B1 VH with E30A, N61H
VL: B1 VL
notes: Fab
B21: Ab1 Fab variant H1 T32A + H2 F58V (Fab, V domains shown)
VH: B1 VH with E30A, F51V
VL: B1 VL
notes: Fab
B22: Ab1 Fab variant H1 T32A + H2 F58I, G66E (Fab, V domains shown)
VH: B1 VH with E30A, F51I, G56E
VL: B1 VL
notes: Fab
B23: Ab1 Fab variant H1 T32A + H2 F58I, S69V (Fab, V domains shown)
VH: B1 VH with E30A, F51I, S59V
VL: B1 VL
notes: Fab
B24: Ab1 Fab variant H1 T32A + H2 F58I, G66E, N71H (Fab, V domains shown)
VH: B1 VH with E30A, F51I, G56E, N61H
VL: B1 VL
notes: Fab
B25: Ab1 Fab variant H1 T32A + H2 S69V (Fab, V domains shown)
VH: B1 VH with E30A, S59V
VL: B1 VL
notes: Fab
B26: Ab1 Fab variant H1 T32A + H2 F58V, S69V, N71H (Fab, V domains shown)
VH: B1 VH with E30A, F51V, S59V, N61H
VL: B1 VL
notes: Fab
B27: Ab1 Fab variant H1 T32A + H2 F58V, G66E, S69V (Fab, V domains shown)
VH: B1 VH with E30A, F51V, G56E, S59V
VL: B1 VL
notes: Fab
B28: Ab1 Fab variant L3 Y137V (Fab, V domains shown)
VH: B1 VH with E30T
VL: B1 VL with Y96V
notes: Fab

target: T1, recombinant human ROR1 extracellular domain (human, UniProt Q01973 30-406); experiment: ELISA, soluble Fab on coated huROR1-ECD
T1 construct: biotinylated for the filter lifts; also called huROR1-ECD; human ROR1-ECD
T1 sequence (Q01973 30-406 limits assumed): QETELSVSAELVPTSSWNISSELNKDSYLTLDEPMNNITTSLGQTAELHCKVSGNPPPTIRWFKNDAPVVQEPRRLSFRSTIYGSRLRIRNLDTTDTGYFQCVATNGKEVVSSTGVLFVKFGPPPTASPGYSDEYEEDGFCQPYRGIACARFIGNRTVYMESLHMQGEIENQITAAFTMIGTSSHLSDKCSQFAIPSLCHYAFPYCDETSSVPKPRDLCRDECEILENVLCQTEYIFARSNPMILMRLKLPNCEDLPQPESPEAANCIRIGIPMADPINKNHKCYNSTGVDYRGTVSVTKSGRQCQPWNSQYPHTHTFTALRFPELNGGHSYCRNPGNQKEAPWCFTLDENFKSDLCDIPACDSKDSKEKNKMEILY
Experimental: (§1) The previously described filter lift assay provides a visual, qualitative assessment of antigen binding (Example 1). In order to assess the ROR1 binding activity of Ab1 Fab in a more quantitative fashion, an ELISA assay was developed. A 96-well Costar-3366 plate was coated with 50 μL/well of 1 μg/mL human ROR1-ECD (ACROBiosystems, cat. #RO1-H522y) in PBS overnight at 4° C. The plate was rinsed once with PBS-T and blocked with 100 μL/well of 5% M-P for 1 h at 25° C. Fab samples were serially diluted 3-fold using 5% M-P and 50 μL/well was incubated for 1 h at 25° C. The plate was washed three times with PBS-T and 50 μL/well anti-human kappa, and HRP conjugate (Southern Biotech, cat. #2060-05) diluted 10,000-fold in 5% M-P was added for 1 h at 25° C. In certain assays (extended wash format), the plate was placed in large volumes (up to 1 L) of PBS-T and incubated, with mixing, for 2-5 h prior to the addition of anti-human kappa, HRP conjugate. The plate was washed three times with PBS-T, and developed with 50 μL/well 1-Step Ultra TMB-ELISA (Thermo Scientific, cat. #34028). The reaction was terminated by the addition of 2 N H2504 and the A450 was determined using a Spectramax plate reader.

Binder | Kd
B1 | 3.3 nM

target: T2, human ROR1 on live cells (human, UniProt Q01973 30-937); experiment: flow cytometry on live JeKo-1 cells, Fab detected with anti-HA-PE
T2 construct: ROR1-transfected MEC cells (~56,000 copies/cell) or JeKo-1 cells (~13,000 copies/cell); the cell line is named under assay; also called ROR1-transfected MEC cells; JeKo-1 cells
T2 sequence (Q01973 30-937 limits assumed): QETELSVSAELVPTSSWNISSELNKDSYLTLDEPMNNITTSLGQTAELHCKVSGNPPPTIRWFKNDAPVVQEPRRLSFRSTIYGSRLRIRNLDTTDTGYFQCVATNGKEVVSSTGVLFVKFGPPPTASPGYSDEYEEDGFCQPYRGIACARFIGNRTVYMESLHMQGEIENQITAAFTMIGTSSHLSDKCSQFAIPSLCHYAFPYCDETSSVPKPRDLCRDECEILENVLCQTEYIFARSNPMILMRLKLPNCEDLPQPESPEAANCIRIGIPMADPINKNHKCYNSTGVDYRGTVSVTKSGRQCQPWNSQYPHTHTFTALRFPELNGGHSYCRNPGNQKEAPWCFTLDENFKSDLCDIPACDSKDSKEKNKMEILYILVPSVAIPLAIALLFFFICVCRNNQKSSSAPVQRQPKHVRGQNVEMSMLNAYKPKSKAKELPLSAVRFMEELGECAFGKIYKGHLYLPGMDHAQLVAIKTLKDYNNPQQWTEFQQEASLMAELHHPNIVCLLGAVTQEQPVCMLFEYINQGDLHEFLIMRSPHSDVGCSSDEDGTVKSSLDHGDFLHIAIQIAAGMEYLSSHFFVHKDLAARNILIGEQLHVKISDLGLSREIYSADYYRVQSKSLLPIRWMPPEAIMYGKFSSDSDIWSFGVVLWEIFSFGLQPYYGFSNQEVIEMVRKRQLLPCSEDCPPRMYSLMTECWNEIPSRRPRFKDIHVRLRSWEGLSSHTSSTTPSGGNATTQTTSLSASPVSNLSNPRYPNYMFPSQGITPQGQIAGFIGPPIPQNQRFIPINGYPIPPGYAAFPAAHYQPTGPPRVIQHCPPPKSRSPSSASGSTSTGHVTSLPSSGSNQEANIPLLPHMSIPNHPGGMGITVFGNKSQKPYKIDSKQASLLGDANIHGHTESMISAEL
Experimental: ROR1 binding was quantitated using flow cytometry and 2.5E5 ROR1-transfected MEC cells or JeKo-1 cells for each concentration of Fab variant. The cells were placed in 50 μL of PBS with 2% FBS. Next, the cells were diluted with an equal volume of 2× stock of the test Fab variant and the cells and antibody were co-incubated on ice for 20 min. The cells were then washed 3 times with 300 μL of FACS buffer and were resuspended in 100 μL of a 70-fold dilution of anti-HA.11-PE conjugate, clone 16B12 (BioLegend, cat. #901517) and incubated on ice with reduced light for 20 min. Subsequently, the cells were washed 3 times with 300 μL of FACS buffer and fixed with 2% paraformaldehyde for 10 min at 25° C. The cells then were washed 2 times with 300 μL of FACS buffer and analyzed on a Miltenyi MACSQuant Analyzer.

Binder | EC50 (read off the curve)
B2 | ~2 nM
B3 | ~1 nM
B4 | ~2 nM
B5 | ~1 nM

target: T1, recombinant human ROR1 extracellular …; experiment: ELISA, soluble Fab on coated huROR1-ECD; remark: another data set of the same source

Binder | fold increase of binding against Ab1
B1 | ~2 fold

target: T1, recombinant human ROR1 extracellular …; experiment: ELISA with prolonged wash, soluble Fab on coated huROR1-ECD
Experimental: as §1
(§2) Subsequently, the libraries were screened by capture lift to identify the strongest binding variants. The identity of the variants was determined by DNA sequencing and the relative affinities were characterized using an ELISA (described in Example 2) modified to enable further discrimination between the highest affinity variants. Specifically, following the initial incubation with soluble Fab, the plates were washed for a prolonged time (>1 h) in large volumes of PBS-T. The plates were then developed as described in Example 2.

Binder | Kd
B2 | 2.3 nM
B4 | 2.1 nM
B6 | 3.3 nM
B5 | 2.1 nM
B7 | 3.9 nM
B8 | 4.8 nM

target: T1, recombinant human ROR1 extracellular …; experiment: as above; remark: another data set of the same source
Experimental: as §1, §2

Binder | Kd
B2 | 1.1 nM
B9 | 1.4 nM
B10 | 1.6 nM
B3 | 1.1 nM
B11 | 1.8 nM
B12 | 1.6 nM
B13 | 2.3 nM

target: T1, recombinant human ROR1 extracellular …; experiment: as above; remark: another data set of the same source
Experimental: as §1, §2

Binder | Kd
B14 | 4.5 nM
B15 | 2.7 nM
B16 | 3 nM
B17 | 2.2 nM
B18 | 3.2 nM
B19 | 2.4 nM
B20 | 2.1 nM
B21 | 3.2 nM
B22 | 5 nM
B23 | 8.5 nM
B24 | 3.4 nM
B25 | 3.3 nM
B26 | 3.9 nM
B27 | 8 nM

target: T1, recombinant human ROR1 extracellular …; experiment: capture filter lift
Experimental: Subsequently, the filter was applied to the agar plates as described above. For detection of antigen binding, the filter was rinsed briefly in PBS, and transferred to biotinylated huROR1-ECD (ACROBiosystems, cat. #RO1-H522y) in 5% M-P.
Filters were incubated with 2.3 nM biotinylated ROR1 diluted in 5% M-P for 2 h at 25° C. with constant agitation, and washed 5 times, 2 minutes each wash, with constant agitation in PBS-T. Alternatively, filters were washed more rapidly using a squirt bottle and sintered glass funnel for vacuum filtration. The filters were transferred to 10 mL of High Sensitivity Neutravidin, HRP conjugate (Thermo Scientific, cat. #31030) diluted 5000-fold in 1% BSA in PBS and incubated for 1 h at 25° C. The filters were then washed 5 times in PBS-T and were developed with 1-Step Ultra TMB-Blotting.
All libraries were initially screened by capture lift to identify variants with improved binding. The capture lift assay, described in Example 1, enables the filter lift assay to discern variants that bind antigen more strongly based on the staining intensity. In order to determine the optimal concentration of antigen to use for screening, biotinylated huROR1-ECD was titrated on a capture lift of Ab1 Fab. Binding to Ab1 was clearly visible at antigen concentrations ≥23 nM and the signal was diminished at lower huROR1 concentrations. […] In addition, for more stringent screening, filters were probed with lower concentrations of antigen and/or development of the filter was terminated earlier, before the Ab1 staining was visible. […] In this example, approximately 250 library variants were plated. Twelve variants clearly bound huROR1 (FIG. 4, numbered).

Binder | binding result
B28 | binds
